Patent US20060246440

Target: T1, GP-NRSF1-8 (UniProt Q13127)
T1 sequence: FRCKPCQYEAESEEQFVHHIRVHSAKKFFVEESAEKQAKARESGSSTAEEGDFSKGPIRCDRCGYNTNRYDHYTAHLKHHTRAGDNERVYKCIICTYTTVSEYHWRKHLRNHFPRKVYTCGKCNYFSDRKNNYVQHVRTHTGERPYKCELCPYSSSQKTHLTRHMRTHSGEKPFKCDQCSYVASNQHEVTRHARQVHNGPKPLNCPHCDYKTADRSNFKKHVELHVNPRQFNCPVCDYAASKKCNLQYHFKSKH
Assay: one_hybrid
Conditions: bacterial two-hybrid lacZ reporter; nearly 7-fold vs Gal11P only

Q: How did the activity (fold activation) turn out when consensus NRSE (21 bp) was run?
A: 7
